Percent of AuNPs in true pairs and stoichiometry N (copies of FGF21 in the receptor complex) data for one substance are collected here from PMC6349402.

The target in the assay is FGFR1c and βKlotho receptor complex on membrane vesicles of CHO cells overexpressing both (human) (UniProt Q86Z14). Kind of assay: cryo-EM and cryo-ET of a gold-nanoparticle-labelled ligand on membrane vesicles; membrane preparations (~5 mg/ml) incubated with AuE38C-FGF21 (0.03 mg/ml) on ice for 30 min, washed with 1X PBS three times, plunge-frozen; AuNPs and AuNP pairs counted in tomograms.
UniProt Q86Z14, sequence (Q86Z14 whole entry, chain 1 of 2): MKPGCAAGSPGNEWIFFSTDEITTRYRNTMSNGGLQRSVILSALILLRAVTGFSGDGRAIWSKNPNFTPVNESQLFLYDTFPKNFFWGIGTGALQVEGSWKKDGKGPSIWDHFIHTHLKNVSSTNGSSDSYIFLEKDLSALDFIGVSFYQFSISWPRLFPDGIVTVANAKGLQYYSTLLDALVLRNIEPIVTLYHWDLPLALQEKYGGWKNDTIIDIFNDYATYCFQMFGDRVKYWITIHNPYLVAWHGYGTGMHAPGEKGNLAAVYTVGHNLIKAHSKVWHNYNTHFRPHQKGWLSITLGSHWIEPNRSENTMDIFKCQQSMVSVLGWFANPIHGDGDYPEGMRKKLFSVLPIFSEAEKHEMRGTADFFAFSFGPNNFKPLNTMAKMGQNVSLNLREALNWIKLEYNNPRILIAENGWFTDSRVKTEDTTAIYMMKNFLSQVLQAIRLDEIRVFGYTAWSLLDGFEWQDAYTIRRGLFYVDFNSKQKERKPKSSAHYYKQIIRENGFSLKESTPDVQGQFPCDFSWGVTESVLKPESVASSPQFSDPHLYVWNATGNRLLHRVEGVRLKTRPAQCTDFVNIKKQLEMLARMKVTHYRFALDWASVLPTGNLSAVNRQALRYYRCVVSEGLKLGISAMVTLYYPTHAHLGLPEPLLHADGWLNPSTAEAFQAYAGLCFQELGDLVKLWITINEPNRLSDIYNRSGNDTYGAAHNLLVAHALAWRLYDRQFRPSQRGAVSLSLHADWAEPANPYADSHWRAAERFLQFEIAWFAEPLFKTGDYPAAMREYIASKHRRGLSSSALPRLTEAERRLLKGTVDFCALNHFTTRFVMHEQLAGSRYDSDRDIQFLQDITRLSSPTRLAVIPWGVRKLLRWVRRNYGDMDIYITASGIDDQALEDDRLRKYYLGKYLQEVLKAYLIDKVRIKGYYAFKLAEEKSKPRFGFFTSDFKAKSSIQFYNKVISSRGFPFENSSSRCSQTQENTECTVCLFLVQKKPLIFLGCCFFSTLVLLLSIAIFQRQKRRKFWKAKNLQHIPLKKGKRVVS
UniProt Q86Z14, sequence (P11362 22-822, chain 2 of 2, further chain): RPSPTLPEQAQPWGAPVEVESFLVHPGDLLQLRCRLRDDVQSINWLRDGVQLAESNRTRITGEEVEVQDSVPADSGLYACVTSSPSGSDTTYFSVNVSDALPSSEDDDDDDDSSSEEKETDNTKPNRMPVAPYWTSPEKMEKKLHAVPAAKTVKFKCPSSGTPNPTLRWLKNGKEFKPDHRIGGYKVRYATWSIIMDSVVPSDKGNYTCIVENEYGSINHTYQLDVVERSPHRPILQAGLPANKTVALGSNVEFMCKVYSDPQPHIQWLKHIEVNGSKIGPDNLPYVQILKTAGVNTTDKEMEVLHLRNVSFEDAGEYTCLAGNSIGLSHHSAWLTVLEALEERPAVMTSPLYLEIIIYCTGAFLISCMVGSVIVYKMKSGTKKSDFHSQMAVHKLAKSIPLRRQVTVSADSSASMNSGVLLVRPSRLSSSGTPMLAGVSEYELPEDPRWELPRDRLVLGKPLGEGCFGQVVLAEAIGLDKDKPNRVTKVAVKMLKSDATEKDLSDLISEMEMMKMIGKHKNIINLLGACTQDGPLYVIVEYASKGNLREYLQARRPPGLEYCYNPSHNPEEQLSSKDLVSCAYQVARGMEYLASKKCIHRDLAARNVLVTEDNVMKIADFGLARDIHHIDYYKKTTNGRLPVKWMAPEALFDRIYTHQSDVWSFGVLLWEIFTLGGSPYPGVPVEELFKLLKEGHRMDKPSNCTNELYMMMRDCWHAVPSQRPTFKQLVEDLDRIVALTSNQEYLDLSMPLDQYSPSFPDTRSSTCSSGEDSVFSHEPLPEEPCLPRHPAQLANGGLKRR

Substance “AuNP-FGF21 (E38C-FGF21 conjugated with a 144-gold atom nanoparticle) (ligand)” yielded a percent of AuNPs in true pairs of 85% and a stoichiometry N (copies of FGF21 in the receptor complex) of 2.
